The record followed here is patent publication US20050214312A1 (ANTIGENICS, published 2005).

Usually Kd stands for the free concentration of one partner at which half of the binding sites on the other are occupied at equilibrium, for simple one-to-one binding.

Test [1] concerns the target T1, recombinant human or murine heat shock protein 70 (hsp70) (human or murine). The test can be described thus: binding affinity for HSP70, binding inhibition assay.
The target of test [2] is T1, recombinant human or murine heat shock …. Nature of the test: binding inhibition assay (Hill plot) against labeled reference hybrid antigen on hsp70.

T1 sequence (A8K5I0 entry or part of it): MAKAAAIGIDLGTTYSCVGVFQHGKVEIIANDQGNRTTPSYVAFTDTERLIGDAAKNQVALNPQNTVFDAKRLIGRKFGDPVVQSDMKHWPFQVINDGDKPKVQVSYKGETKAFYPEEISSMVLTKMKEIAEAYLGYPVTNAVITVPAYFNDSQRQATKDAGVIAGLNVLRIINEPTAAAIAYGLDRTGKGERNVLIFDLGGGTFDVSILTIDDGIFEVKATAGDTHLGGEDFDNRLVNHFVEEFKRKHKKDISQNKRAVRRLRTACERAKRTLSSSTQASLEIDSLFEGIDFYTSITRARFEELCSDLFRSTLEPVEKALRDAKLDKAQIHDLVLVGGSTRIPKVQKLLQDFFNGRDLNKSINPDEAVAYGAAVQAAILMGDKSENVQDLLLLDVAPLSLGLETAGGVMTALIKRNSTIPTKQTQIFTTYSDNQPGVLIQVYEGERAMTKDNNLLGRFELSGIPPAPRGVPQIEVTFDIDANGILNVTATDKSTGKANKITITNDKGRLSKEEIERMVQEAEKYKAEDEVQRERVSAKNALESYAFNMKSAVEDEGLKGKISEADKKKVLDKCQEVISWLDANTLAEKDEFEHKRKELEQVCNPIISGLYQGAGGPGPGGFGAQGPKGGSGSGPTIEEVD

B1: NLLRLTGWRKSIINFEKL (peptide)
peptide: NLLRLTGWRKSIINFEKL
In the case of B1, the Kd in test [1] and in test [2] was 800 nM each time.

B2: NLLRLTGWFFRKSIINFEKL (peptide)
peptide: NLLRLTGWFFRKSIINFEKL
Take B2: the Kd in test [1] and in test [2] was 2200 nM throughout.

B3: NLLRLTGWQLKSIINFEKL (peptide)
peptide: NLLRLTGWQLKSIINFEKL
B3: the Kd in test [1] was 400 nM.

B4: SIINFEKL (ovalbumin amino acids 257-264) (peptide)
peptide: SIINFEKL
In the case of B4, in test [2], the Kd was found to be 235000 nM.

B5: NLLRLTGWGSGSIINFEKL (peptide)
peptide: NLLRLTGWGSGSIINFEKL
Turning to B5, the Kd in test [1] and in test [2] was 1600 nM in each case.

B6: NLLRLTGWFRSIINFEKL (peptide)
peptide: NLLRLTGWFRSIINFEKL
On to B6, for which the Kd in test [1] was found to be 1500 nM.

B7: NLLRLTGWAKVLSIINFEKL (peptide)
peptide: NLLRLTGWAKVLSIINFEKL
As for B7, the Kd in test [1] worked out at 2000 nM.
